± gives the uncertainty stated by the source.
B1: Chromodomain-helicase-DNA-binding protein 5, residues 411 to 463; numbered along this chain, Q8TDI0 (parent)
chain: EEDDHMEFCRVCKDGGELLCCDACPSSYHLHCLNPPLPEIPNGEWLCPRCTCP
B2: Gamma-crystallin S, residues 96 to 176; numbered along this chain, P22914 (parent)
chain: IQIFEKGDFSGQMYETTEDCPSIMEQFHMREIHSCKVLEGVWIFYELPNYRGRQYLLDKKEYRKPIDWGAASPAVQSFRRI

Variants of: B1
Assay: abundance fitness (aPCA) (normalised: wild type 0, dead -1); higher = more abundant; growth selection in yeast, the domain comes from the species named
Conditions: Homo sapiens

Variant | abundance fitness
C24A | -0.637 ± 0.12
C24H | 0.139 ± 0.13
C24Q | -1.11 ± 0.28
T51P | -0.078 ± 0.089
T51C | 0.086 ± 0.083
T51W | -0.346 ± 0.075
L33N | -0.971 ± 0.19
G43E | 0.003 ± 0.071
L30C | -0.038 ± 0.063
L30V | 0.019 ± 0.042
L30Y | -0.019 ± 0.08
L30E | -0.142 ± 0.078
L30Q | 0.016 ± 0.063
C21G | -0.809 ± 0.067
C21N | -1.03 ± 0.15
C21A | -0.83 ± 0.061
C21T | -1 ± 0.14
V11W | -0.193 ± 0.052
V11R | -0.113 ± 0.058
V11E | 0.18 ± 0.076
V11C | -0.275 ± 0.11
W45Y | -0.299 ± 0.1
E44S | 0.031 ± 0.059

Variant | abundance fitness
D14G | 0.086 ± 0.085
D14S | -0.17 ± 0.073
D14L | -0.153 ± 0.053
D14E | 0.059 ± 0.13
H31R | 0.05 ± 0.049
H31S | -0.075 ± 0.08
H31T | -0.16 ± 0.1
H31A | -0.092 ± 0.084
H31P | -0.406 ± 0.13
C12P | -0.699 ± 0.1
C12I | -0.601 ± 0.095
R49L | -0.094 ± 0.048
R49I | -0.305 ± 0.11
R49C | 0.021 ± 0.057
R49M | 0.017 ± 0.067
P25G | 0.085 ± 0.067
P25H | 0.024 ± 0.09
P25V | 0.03 ± 0.076
P25K | 0.058 ± 0.075
P38I | -0.564 ± 0.29
F8G | 0.033 ± 0.044
F8E | -0.135 ± 0.083
F8C | -0.242 ± 0.097

Variant | abundance fitness
P48Q | -0.09 ± 0.079
P48T | -0.004 ± 0.092
G16L | -0.28 ± 0.078
E17T | 0.03 ± 0.055
E17A | -0.063 ± 0.043
L18F | -0.969 ± 0.24
L18N | -0.932 ± 0.49
L18Q | -0.415 ± 0.15
L18T | -0.076 ± 0.099
P36Q | 0.089 ± 0.1
P36L | -0.215 ± 0.055
P36D | -0.068 ± 0.048
P41Y | -0.043 ± 0.2
P41V | 0.043 ± 0.069
E1P | -0.803 ± 0.27
E1C | -0.893 ± 0.47
E1R | -0.554 ± 0.16
E1D | -0.455 ± 0.085
P35S | -0.23 ± 0.06
P35E | 0.034 ± 0.079
A23C | -0.018 ± 0.14
I40V | -0.027 ± 0.11
I40C | 0.116 ± 0.1

Variant | abundance fitness
I40N | 0.063 ± 0.14
I40Q | 0.132 ± 0.12
D22T | 0.038 ± 0.053
D22C | -0.046 ± 0.08
D22S | 0.034 ± 0.041
C47H | -0.235 ± 0.2
C47M | -0.906 ± 0.17
C47W | -0.914 ± 0.067
C47R | -0.737 ± 0.058
G15W | -0.087 ± 0.09
G15R | 0.087 ± 0.058
G15K | 0.191 ± 0.097
K13M | -0.18 ± 0.071
E7I | -0.123 ± 0.074
E7L | -0.131 ± 0.065
E7S | -0.215 ± 0.084
E39F | -0.235 ± 0.27
E39A | 0.006 ± 0.084
E39G | -0.135 ± 0.092
E39D | -0.203 ± 0.14
E39Q | 0.008 ± 0.19
E39R | -0.301 ± 0.088
C32E | -0.264 ± 0.12

Variant | abundance fitness
C32F | -0.758 ± 0.21
C32M | -0.736 ± 0.15
S27E | -0.212 ± 0.076
L19K | -0.361 ± 0.14
D4L | 0.11 ± 0.042
D4Y | 0.252 ± 0.077
S26K | -0.062 ± 0.09
L37E | -0.041 ± 0.099
L37V | -0.135 ± 0.079
L37A | 0.031 ± 0.043
L37H | 0.268 ± 0.094
L37R | -0.006 ± 0.049
M6K | 0.172 ± 0.08
M6W | -0.174 ± 0.076
M6R | -0.045 ± 0.056
M6S | -0.233 ± 0.081
C20E | -0.049 ± 0.079
C20A | 0.071 ± 0.066
C20P | 0.146 ± 0.073
C20Q | 0.031 ± 0.047
C20S | -0.008 ± 0.055
C9V | -1.09 ± 0.069
C9K | -0.438 ± 0.074

Variant | abundance fitness
E2M | -0.669 ± 0.4
E2W | -0.314 ± 0.13
H29M | -0.87 ± 0.15
H29V | -0.882 ± 0.11
R10S | -0.089 ± 0.055
R10Y | 0.037 ± 0.061
R10P | -0.413 ± 0.088
R10V | -0.25 ± 0.065
R10I | -0.089 ± 0.086
D3F | 0.357 ± 0.045
D3I | 0.36 ± 0.07
D3N | 0.168 ± 0.069
L46F | 0.101 ± 0.091
L46D | -0.65 ± 0.19
L46Q | -0.063 ± 0.12
Y28Q | -0.454 ± 0.062
Y28R | -0.527 ± 0.053
Y28G | -0.536 ± 0.059
Y28W | -0.188 ± 0.047

Variants of: B2
Assay: as above
Conditions: Homo sapiens

Variant | abundance fitness
Q12R | 0.025 ± 0.047
Q12T | 0.053 ± 0.084
Q12P | 0.013 ± 0.059
Q12N | 0.09 ± 0.095
Q12A | -0.02 ± 0.036
Q12D | 0.012 ± 0.089
Q12E | -0.053 ± 0.059
Q12M | 0.001 ± 0.071
Q12H | -0.04 ± 0.12
Q12F | -0.053 ± 0.084
Q12C | -0.093 ± 0.056
Q12L | -0.014 ± 0.047
Q12G | 0.033 ± 0.032
Q12S | 0.023 ± 0.052
I1C | 0.104 ± 0.11
I1R | -1.07 ± 0.23
I1S | -0.973 ± 0.078

Variant | abundance fitness
I1N | -0.968 ± 0.37
I1K | -0.732 ± 0.35
I1G | -1.18 ± 0.16
I1W | -1.16 ± 0.44
I1F | 0.011 ± 0.091
I1H | 0.005 ± 0.46
I1T | -0.191 ± 0.13
I1L | -0.154 ± 0.084
I1A | -0.239 ± 0.051
I1V | 0.05 ± 0.073
F4H | -0.017 ± 0.095
F4E | -1.16 ± 0.23
F4D | -0.971 ± 0.2
F4S | -0.113 ± 0.031
F4G | -0.414 ± 0.042
F4V | -0.906 ± 0.082

Source: the Human Domainome abundance scans (Beltran et al. 2025)
